According to patent US11833164B2, “Methods of treating Fabry disease in patients having a mutation in the GLA gene” (Amicus Therapeutics, Inc., priority 2019, dated 2023):
Positions count from the first letter of the chain named. Names and notes keep the numbering of the source.

B1: V369I (protein)
chain: MQLRNPELHLGCALALRFLALVSWDIPGARALDNGLARTPTMGWLHWERFMCNLDCQEEPDSCISEKLFMEMAELMVSEGWKDAGYEYLCIDDCWMAPQRDSEGRLQADPQRFPHGIRQLANYVHSKGLKLGIYADVGNKTCAGFPGSFGYYDIDAQTFADWGVDLLKFDGCYCDSLENLADGYKHMSLALNRTGRSIVYSCEWPLYMWPFQKPNYTEIRQYCNHWRNFADIDDSWKSIKSILDWTSFNQERIVDVAGPGGWNDPDMLVIGNFGLSWNQQVTQMALWAIMAAPLFMSNDLRHISPQAKALLQDKDVIAINQDPLGKQGYQLRQGDNFEVWERPLSGLAWAVAMINRQEIGGPRSYTIAIASLGKGVACNPACFITQLLPVKRKLGFYEWTSRLRSHINPTGTVLLQLENTMQMSLKDLL
B2: V369L (protein)
chain: B1 chain with I369L
B3: A370D (protein)
chain: B1 chain with I369V, A370D
B4: A370G (protein)
chain: B1 chain with I369V, A370G
B5: A370P (protein)
chain: B1 chain with I369V, A370P
B6: A370T (protein)
chain: B1 chain with I369V, A370T
B7: A370V (protein)
chain: B1 chain with I369V, A370V
B8: S371C (protein)
chain: B1 chain with I369V, S371C

These molecules were tested on mutant form of α-Gal A expressed in HEK-293 cells (assay: HEK assay (GLP HEK / Migalastat Amenability Assay): α-Gal A activity in lysates of transiently transfected HEK-293 cells incubated with or without 10 μM migalastat). Conditions: 10 μM migalastat versus baseline.
Format: cell-based, human
Outline: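 Activity reported as 4-MU released (nmol/mg/hr), mean±SEM, from lysates of transiently transfected HEK-293 cells expressing mutant α-Gal A, cultured with or without 10 μM migalastat.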

Molecule	Absolute increase (% WT)	Relative increase
B1	19.6 % WT	1.2
B2	30.3 % WT	1.4
B3	22.4 % WT	1.2
B4	22.9 % WT	1.3
B5	16.9 % WT	1.5
B6	17.6 % WT	1.2
B7	20.6 % WT	1.5
B8	11.1 % WT	1.4

Same assay, conditions: absence of migalastat; percentage of baseline wild-type α-Gal A activity; mean ± SEM

Molecule	Baseline α-Gal A activity (% WT)
B1	79.7 ± 6.8 % WT
B2	74.2 ± 3.7 % WT
B3	87.5 ± 6.1 % WT
B4	78.1 ± 4.4 % WT
B5	33.9 ± 2.8 % WT
B6	79.9 ± 4.3 % WT
B7	40.1 ± 3.1 % WT
B8	23.5 ± 1.3 % WT

Same assay, conditions: lysates of HEK-293 cells transiently transfected with the mutant form, incubated 5 days in absence of migalastat; mean ± SEM

Molecule	Baseline α-Gal A activity
B1	30094 ± 3211 nmol/mg/h
B2	27680 ± 1912 nmol/mg/h
B3	27098 ± 2504 nmol/mg/h
B4	24835 ± 2637 nmol/mg/h
B5	10431 ± 975 nmol/mg/h
B6	25024 ± 1951 nmol/mg/h
B7	15754 ± 1222 nmol/mg/h
B8	10189 ± 1078 nmol/mg/h

Same assay, conditions: lysates of HEK-293 cells transiently transfected with the mutant form, incubated 5 days with 10 μM migalastat; mean ± SEM

Molecule	10 μM migalastat α-Gal A activity
B1	36630 ± 2373 nmol/mg/h
B2	38458 ± 2367 nmol/mg/h
B3	33279 ± 2473 nmol/mg/h
B4	31805 ± 3001 nmol/mg/h
B5	15618 ± 1776 nmol/mg/h
B6	30276 ± 2364 nmol/mg/h
B7	24151 ± 1591 nmol/mg/h
B8	14546 ± 1141 nmol/mg/h

Same assay, conditions: with 10 μM migalastat, 5 days; percentage of baseline wild-type α-Gal A activity; mean ± SEM

Molecule	10 μM migalastat α-Gal A activity (% WT)
B1	99.3 ± 5.5 % WT
B2	104.5 ± 5.6 % WT
B3	109.8 ± 6.8 % WT
B4	101 ± 5.4 % WT
B5	50.7 ± 5.4 % WT
B6	97.5 ± 6.1 % WT
B7	60.7 ± 3.5 % WT
B8	34.7 ± 1.6 % WT
